Laboratory results: patent publication US20160040149A1, “Compositions Having Dicamba Decarboxylase Activity and Methods of Use” (priority 2013, published 2016)

Test: DNA shuffling libraries: 14CO2 capturing assay in 384-well format, fold activity of backbone (Megatable 2)
Conditions: relative to backbone SEQ ID NO: 133 (DDEC0201)

Row | Molecule | Fold Activity [fold]
1 | 364 (protein, Dicamba decarboxylase variant) MAQGKVALEEHFAIPETLQDSAGFVPSEYLKELQHRLLDIQDTRLKLMDAHGIETMILSLAAPAVQAIPDRRKAIEIARRANDFLAEECAKRPDRFLAFAALPLQDPDAATEELQRTVNDLGFVGALVNGFSQEGDGQTPLYYDLPQYRPFWGEVEKLDVPFYLHPRNPLPQDSRIYDGHPWLLGPTWAFAQETAVHALRLMASGLFDEHPRLNIILGHMGEGLPYMMYRIDHRIAWVKLPPRYPAKRRFMDYFNENFHITTSGNFRTQTLIDAILEIGADRILFSTDWPFENIDHAADWFNATSIAEADRVKIGRTNARRLFKLDGA | 1.0
2 | 356 (protein, Dicamba decarboxylase variant) MAQGKVALEEHFAIPETLQDSAGFVPGDYWKELQHRLLDIQDTRLKLMDAHGIETMILSLAAPAVQAIPDRRKAIEIARRANDMLAEECAKRPDRFLAFAALPLQDPDAATEELQRCVNDLGFVGALVNGFSVEGDGQTPLYYDLPQYRPFWGEVEKLDVPFYLHPRNPLPQDSRIYDGHPWLLGPTWAFAQETAVHALRLMASGLFDEHPRLNIILGHLGEGLPYMMYRIDHRIAWVHEPPRYPAKRRFMDYFNENFHITTSGNFRTQTLIDAILEIGADRILFSTDWPFENIDHAADWFNATSIAEADRLKIGRTNARRLFKLDGD | 1.0
3 | 369 (protein, Dicamba decarboxylase variant) MAQGKVALEEHFAIPETLQDSAGFVPGDYWKELQHRLLDIQDTRLRLMDAHGIETMILSLAAPAVQAIPDRRKAIEIARRANDFLAEECAKRPDRFLAFAALPLQDPDAATEELQRCVNDLGFVGALVNGFSQEGDGQTPLYYDLPQYRPFWGEVEKLDVPFYLHPRNPLPQDSRIYDGHPWLLGPTWAFAQETAVHALRLMASGLFDEHPRLNIILGHMGEGLPYMMYRIDHRIAWVHEPPRYPAKRRFMDYFNENFHITTSGNFRTQTLIDAILEIGADRILFSTDWPFENIDHAADWFNATSIAEADRVKIGRTNARRLFKLDGA | 1.1
4 | 365 (protein, Dicamba decarboxylase variant) MAQGKVALEEHFAIPETLQDSAGFVPGDYWKELQHRLLDIQDTRLKLMDAHGIETMILSLAAPAVQAIPDRRKAIEIARRANDFLAEECAKRPDRFLAFAALPLQDPDAATEELQRCVNDLGFVGALVNGFSQEGDGQTPLYYDLPQYRPFWGEVEKLDVPFYLHPRNPLPQDSRIYDGHPWLLGPTWAFAQETAVHALRLMASGLFDEHPRLNIILGHMGEGLPYMMYRIDHRIAWVHEPPRYPAKRRFMDYFNENFHITTSGNFRTQTLIDAILEIGADRILFSTDWPFENIDHAADWFNATSIAEADRVKIGRTNARRLFKLDGA | 1.6
5 | 363 (protein, Dicamba decarboxylase variant) MAQGKVALEEHFAIPETLQDSAGFVPGDYWKELQHRLLDIQDTRLKLMDAHGIETMILSLAAPGVQAIPDRRKAIEIARRANDILAEECAKRPDRFLAFAALPLQDPDAATEELQRCVNDLGFVGALVNGFSQEGDGQTPLYYDLPQYRPFWGEVEKLDVPFYLHPRNPLPQDSRIYDGHPWLLGPTWAFAQETAVHALRLMASGLFDEHPRLNIILGHMGEGLPYMMYRIDHRIAWVQEPPRYPAKRRFMDYFNENFHITTSGNFRTQTLIDAILEIGADRILFSTDWPFENIDHAADWFNATSIAEADRVKIGRTNARRLFKLDGA | 0.9
6 | 368 (protein, Dicamba decarboxylase variant) MAQGKVALEEHFAIPETLQDSAGFVPGDYWKELQHRLLDIQDTRLKLMDAHGIETMILSLAAPGVQAIPDRRKAIEIARRANDMLAEECAKRPDRFLAFAALPLQDVDAATEELQRCVNDLGFVGALVNGFSVEGDGQTPLYYDLPQYRPFWGEVEKLDVPFYLHPRNPLPQDSRIYDGHPWLLGPTWAFAQETAVHALRLMASGLFDEHPRLNIILGHMGEGLPYMMYRIDHRIAWVHEPPRYPAKRRFMDYFLENFHITTSGNFRTQTLIDAILEIGADRILFSTDWPFENIDHAADWFNATSIAEADRLKIGRTNARRLFKLDGD | 0.9
7 | 362 (protein, Dicamba decarboxylase variant) MAQGKVALEEHFAIPETLQDSAGFVPGDYWKELQHRLLDIQDTRLKLMDAHGIETMILSLAAPAVQAIPDRRKAIEIARRANDMLAEECAKRPDRFLAFAALPLQDPDAATEELQRCVNDLGFVGALVNGFSQEGDGQTPLYYDLPQYRPFWGEVEKLDVPFYLHPRNPLPQDSRIYDGHPWLLGPTWAFAQETAVHALRLMASGLFDEHPRLNIILGHMGEGLPYMMYRIDHRIAWVHEPPRYPAKRRFMDYFNENFHITTSGNFRTQTLIDAILEIGADRILFSTDWPFENIDHAADWFNATSIAEADRVKIGRTNARRLFKLDLD | 0.9
8 | 359 (protein, Dicamba decarboxylase variant) MAQGKVALEEHFAIPETLNDSAGFVPGDYWKELQHRLLDIQDTRLKLMDAHGIETMILSLAAPAVQAIPDRRKAIEIARRANDFLAEECAKRPDRFLAFAALPLQDPDAATEELQRCVNDLGFVGALVNGFSQEGDGQTPLYYDLPQYRPFWGEVEKLDVPFYLHPRNPLPQDSRIYDGHPWLLGPTWAFAQETAVHALRLMASGLFDEHPRLNIILGHLGEGLPYMMYRIDHRIAWVKLPPRYPAKRRFMDYFNENFHITTSGNFRTQTLIDAILEIGADRILFSTDWPFENIDHAADWFNETSIAEADRVKIGRTNARRLFKLDGA | 1.3
9 | 360 (protein, Dicamba decarboxylase variant) MAQGKVALEEHFAIPETLQDSAGFVPGDYWKELQHRLLDIQDTRLKLMDAHGIETMILSLAAPAVQAIPDRRQAIEIARRANDFLAEECAKRPDRFLAFAALPLQDPDAATEELQRCVNDLGFVGALVNGFSVEGDGQTPLYYDLPQYRPFWGEVEKLDVPFYLHPRNPLPQDSRIYDGHPWLLGPTWAFAQETAVHALRLMASGLFDEHPRLNIILGHLGEGLPYMMYRIDHRIAWVKLPPRYPAKRRFMDYFNENFHITTSGNFRTQTLIDAILEIGADRILFSTDWPFENIDHAADWFNATSIAEADRLKIGRTNARRLFKLDGA | 1.1
10 | 367 (protein, Dicamba decarboxylase variant) MAQGKVALEEHFAIPETLQDSAGFVPGDYWKELQHRLLDIQDTRLKLMDAHGIETMILSLAAPAVQAIPDRRKAIEIARRANDFLAEECAKRPDRFLAFAALPLQDPDAATEELQRTVNDLGFVGALVNGFSVEGDGQTPLYYDLPQYRPFWGEVEKLDVPFYLHPRNPLPQDSRIYDGHPWLLGPTWAFAQETAVHALRLMASGLFDEHPRLNIILGHMGEGLPYMMYRIDHRIAWVKLPPRYPAKRRFMDYFNENFHITTSGNFRTQTLIDAILEIGADRILFSTDWPFENIDHAADWFNATSIAEADRVKIGRTNARRLFKLDGD | 0.9
11 | 358 (protein, Dicamba decarboxylase variant) MAQGKVALEEHFAIPETLQDSAGFVPGDYWKELQHRLLDIQDTRLKLMDAHGIETMILSLAAPAVQAIPDRRKAIEIARRANDFLAEECAKRPDRFLAFAALPLQDPDAATEELQRCVNDLGFVGALVNGFSVEGDGQTPLYYDLPQYRPFWGEVEKLDVPFYLHPRNPLPQDSRIYDGHPWLLGPTWAFAQETAVHALRLMASGLFDEHPRLNIILGHMGEGLPYMMYRIDHRIAWVKLPPRYPAKRRFMDYFNENFHITTSGNFRTQTLIDAILEIGADRILFSTDWPFENIDHATAWFNATSIAEADRLKIGRTNARRLFKLDGA | 0.9
12 | 361 (protein, Dicamba decarboxylase variant) MAQGKVALEEHFAIPETLQDSAGFVPGDYWKELQHRLLDIQDTRLKLMDAHGIETMILSLAAPAVQAIPDRRKAIEIARRANDFLAEECAKRPDRFLAFAALPLQDPDAATEELQRCVNDLGFVGALVNGFSQEGDGQTPLYYDLPQYRPFWGEVEKLDVPFYLHPRNPLPQDSRIYDGHPWLLGPTWAFAQETAVHALRLMASGLFDEHPRLNIILGHMGEGLPYMMYRIDHRIAWVKLPPRYPAKRRFMDYFNENFHITTSGNFRTQTLIDAILEIGADRILFSTDWPFENIDHAADWFNATSIAEADRLKIGRTNARRLFKLDGA | 1.0
13 | 357 (protein, Dicamba decarboxylase variant) MAQGKVALEEHFAIPETLQDSAGFVPGDYWKELQHRLLDIQDTRLKLMDAHGIETMILSLAAPAVQAIPDRRKAIEIARRANDFLAEECAKRPDRFLAFAALPLQDPDAASEELQRCVNDLGFVGALVNGFSVEGDGQTPLYYDLPQYRPFWGEVEKLDVPFYLHPRNPLPQDSRIYDGHPWLLGPTWAFAQETAVHALRLMASGLFDEHPRLNIILGHMGEGLPYMMYRIDHRIAWVHEPPRYPAKRRFMDYFNENFHITTSGNFRTQTLIDAILEIGADRILFSTDWPFENIDHAADWFNATSIAEADRVKIGRTNARRLFKLDLD | 1.4
14 | 370 (protein, Dicamba decarboxylase variant) MAQGKVALEEHFAIPETLQDSAGFVPGDYWKELQHRLLDIQDTRLKLMDAHGIETMILSLAAPAVQAIPDRRKAIEIARRANDFLAEECAKRPDRFLAFAALPLQDVDAASEELQRCVNDLGFVGALVNGFSVEGDGQTPLYYDLPQYRPFWGEVEKLDVPFYLHPRNPLPQDSRIYDGHPWLLGPTWAFAQETAVHALRLMASGLFDEHPRLNIILGHMGEGLPYMMYRIDHRIAWVKLPPRYPAKRRFMDYFNENFHITTSGNFRTQTLIDAILEIGADRILFSTDWPFENIDHAADWFNATSIAEADRLKIGRTNARRLFKLDGD | 0.9
15 | 366 (protein, Dicamba decarboxylase variant) MAQGKVALEEHFAIPETLQDSAGFVPGDYWKELQHRLLDIQDTRLKLMDAHGIETMILSLAAPAVQAIPDRVQAIEIARRANDFLAEECAKRPDRFLAFAALPLQDPDAATEELQRCVNDLGFVGALVNGFSQEGDGQTPLYYDLPQYRPFWGEVEKLDVPFYLHPRNPLPQDSRIYDGHPWLLGPTWAFAQETAVHALRLMASGLFDEHPRLNIILGHMGEGLPYMMYRIDHRIAWVKLPPRYPAKRRFMDYFNENFHITTSGNFRTQTLIDAILEIGADRILFSTDWPFENIDHAADWFNATSIAEADRLKIGRTNARRLFKLDLD | 0.9
